The target of the assay is T1, cynomolgus serum albumin (cynomolgus).
T1 construct: also called CSA
Nature of the assay: SPR (ProteOn XPR36), Protein #5 captured on hFAP-coated GLC chip, CSA as analyte, 1:1 Langmuir fit. How it is done:
ProteOn setup for Protein #5 binding to serum albumin of different species. First, human FAP (hFAP) was coated on a GLC chip (BioRad) to a level of 700 RU before 50 nM Protein #5 was immobilized as analyle for 120 s (dissociation of 0 s) at constant flow of 100 μl/min to a level of 120 RU. The binding of the serum albumin to Protein #5 was measured by injecting human serum albumin (HSA), cynomolgus serum albumin (CSA) and mouse serum albumin (MSA) in a serial dilution of 100, 33, 11 and 3.7 nM with an association of 120 s and a dissociation of 600 s at a constant flow of 100 μl/min. HSA, CSA and MSA binding was measured serially and the hFAP/Protein #5 complex was regenerated each time with 10 mM glycine pH2 for 18 s at a flow of 100 μl/min. Thus, Protein #5 had to be re-immobilized on hFAP after each regeneration step. […] The kinetic was calculated on the first 300 s of dissociation.

T1 sequence (A2V9Z4 25-608): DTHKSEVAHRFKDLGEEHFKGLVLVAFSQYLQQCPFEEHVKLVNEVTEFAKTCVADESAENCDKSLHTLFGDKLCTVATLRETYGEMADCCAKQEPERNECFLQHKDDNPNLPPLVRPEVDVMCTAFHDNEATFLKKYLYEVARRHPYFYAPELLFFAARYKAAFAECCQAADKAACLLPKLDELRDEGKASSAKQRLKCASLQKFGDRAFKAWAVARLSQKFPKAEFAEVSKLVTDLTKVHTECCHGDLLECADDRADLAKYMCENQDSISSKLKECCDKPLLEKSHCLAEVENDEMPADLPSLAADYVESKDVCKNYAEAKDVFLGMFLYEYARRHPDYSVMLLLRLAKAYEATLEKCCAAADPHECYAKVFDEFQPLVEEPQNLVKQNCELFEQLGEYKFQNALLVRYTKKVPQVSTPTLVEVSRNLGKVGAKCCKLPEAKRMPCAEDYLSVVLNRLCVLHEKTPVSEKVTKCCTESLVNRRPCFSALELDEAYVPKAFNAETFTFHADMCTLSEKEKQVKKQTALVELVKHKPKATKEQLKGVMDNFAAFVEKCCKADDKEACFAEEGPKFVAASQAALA

B1: DARPin Protein #5 (designed binder)
chain: GSDLGKKLLEAARAGQDDEVRELLKAGADVNAKDYFSHTPLHLAARNGHLKIVEVLLKAGADVNAKDFAGKTPLHLAAADGHLEIVEVLLKAGADVNAQDIFGKTPADIAADAGHEDIAEVLQKAAGSPTPTPTTPTPTPTTPTPTPTGSDLGKKLLEAARAGQDDEVRILLAAGADVNAKDVLGWTPLHLAAFEGHLEIVEVLLKAGADVNAKDKKGWTPLQLAARTGHLEIVEVLLKAGADVNAKDHIGATPLHLAAWQGHPEIVEVLLKAGADVNAQDKSGKTPADLAADAGHEDIAEVLQKAAGSPTPTPTTPTPTPTTPTPTPTGSDLGKKLLQAARAGQLDEVRELLKAGADVNAKDTWGFTPLHIAAESGHLEIVEVLLKAGADVNAKDVQGRTPLHIAAHSGHLEIVEVLLKAGADVNAKDFRGWTPLHLAAWSGHLEIVEILLKAGADVNAQDKSGKTPADLAARAGHQDIAEVLQKAAGSPTPTPTTPTPTPTTPTPTPTGSDLGKKLLQAARAGQLDEVRELLKAGADVNAKDTWGFTPLHIAAESGHLEIVEVLLKAGADVNAKDVQGRTPLHIAAHSGHLEIVEVLLKAGADVNAKDFRGWTPLHLAAWSGHLEIVEILLKAGADVNAQDKSGKTPADLAARAGHQDIAEVLQKAA
notes: No tag is stated for this protein; also called SMA136; Molecule No. 1
For the molecule B1, the Kd amounted to 409 nM, the koff stood at 0.217 s⁻¹ and the association rate constant (kon) turned out to be 532000 M⁻¹ s⁻¹.

For the origin of these results see patent publication US20240279290A1 (Molecular Partners, published 2024).
